Assay [1] concerns the target basic fibroblast growth factor (Homo sapiens, UniProt P09038). The settings on record: mediated by heparan sulfate GAG chains; cited from earlier work.
The next assay deals with T1, BAPP-770 (Homo sapiens, UniProt P05067).
T1 construct: host or cells: baculovirus-derived
The settings on record: single binding site; cited from earlier work.

In assay [2] the test system is β/A4 amyloid deposition in rat hippocampus. Description: Rat infusion model of β/A4 amyloid deposition in hippocampus. Type of assay: in vivo. The settings on record: 1 week infusion. As for the experimental part:
For infusion studies, all reagents were dissolved and stored at 4° C. the night prior to surgery. β/A4 (residues 1-40; Bachem California Inc., Torrance, Calif.; Lot #ZJ209) was initially dissolved at 10 mg/ml in 35% acetonitrile (stock solution), with the final diluted concentration of acetonitrile less than 3% in animals infused with β/A4 or its vehicle (see below). Perlecan (basement membrane derived HSPG) and heparan sulfate (HS) GAGs were isolated and purified from the mouse Engelbreth-Holm-Swarm (EHS) sarcoma as described (6), and dissolved in sterile saline at 5 mg/ml and 10 mg/ml, respectively. Male Sprague-Dawley rats (250-300 gms; 3 months old; Harlan Sprague Dawley) were implanted with Alzet 2002 minipumps delivering the following solutions directly into hippocampus at a flow rate of 0.5 μl per hour for one week (7); 1) β/A4 (7.5 μl stock) & HSPG (92.5 μl stock), 6 animals; 2) β/A4 (7.5 μl stock) & HS GAGs (92.5 μl stock), 4 animals; 3) β/A4 (7.5 μl stock) & saline (92.5 μl), 6 animals; 4) HSPG only (100 μl), 4 animals; 5) HS GAGs only (100 μl), 4 animals; 6) saline only (100 μl), 4 animals; and 7) 35% acetonitrile (β/A4 vehicle, 7.5 μl) & saline (92.5 μl), 2 animals. High concentrations of these reagents were chosen to maximize possible effects following infusion into brain. The approximate quantity of β/A4 peptide infused into brain by the end of 1 week in each animal having β/A4 (1-40) as part of the infusate was 75 μg, at least 5 times the amount previously reported in rat models employing single acute injections (8, 9). After one week of continuous infusion, rats were sacrificed by overdose with pentobarbital and perfused with 100 ml of saline followed by 150 ml of 4% paraformaldehyde buffered with phosphate (pH 7.4), postfixed for 24 hours and transferred to phosphate buffered saline for paraffin embedding. Once embedded, consecutive 6 μm serial sections were cut and placed on poly-D-lysine coated slides. Two additional animals in the β/A4 only and the β/A4 & HSPG groups were processed for electron microscopy as described (10).
Detection of infused macromolecules was monitored using two polyclonal antibodies against synthetic β/A4 (either against β/A4 1-28 or 1-40) (13), and two monoclonal antibodies recognizing either HS GAGs (HK-249) (14) or the core protein of perlecan (HK-102) (15). Additionally, two polyclonal antibodies recognizing the core protein of perlecan (17) assessed effects of infused macromolecules (16) on endogenous brain HSPGs. Detection of other AD-like markers included Alz-50 antibody immunostaining (18), and silver staining by the modified Bielschowsky method (19). Possible inflammation-associated amyloid protein involvement was monitored by AA amyloid protein immunostaining (20). The presence of other cell types such as astrocytes was detected by immunostaining with a polyclonal antibody to glial fibrillary acidic protein (GFAP) (1:10,000 dilution; Dako), whereas microglia/macrophage infiltration was detected using a rat monoclonal antibody known as ED1 (1:2500 dilution; Serotec). For all immunostaining, negative controls consisted of using Tris-buffered saline (TBS) instead of the primary antibody, and/or preabsorption experiments using the primary antibody in the presence of excess antigen. In order to quantify possible staining and/or immunostaining differences between the various infusion groups, slides were scored blindly by two independent investigators as described (21) (Table 1; see FIG. 35).
7. Rats were anesthetized with pentobarbital (50 mg/kg) and a 27 gauge steel cannula was stereotactically implanted into the hippocampus using bregma as reference point (AP −4.8; ML 3.5; DV 4), and secured to the skull by machine screws and dental acrylic. The cannula was connected via a 15 cm coil of vinyl tubing to a model 2002 osmotic minipump (Alzet Inc.) placed subcutaneously beneath the shoulder blades. […]

The target of a further assay is T2, BAPP-751 (Homo sapiens, UniProt P05067).
T2 construct: host or cells: baculovirus-derived
The settings on record: single binding site; cited from earlier work.

For the next assay, the target named is T3, BAPP-695 (Homo sapiens, UniProt P05067).
T3 construct: host or cells: baculovirus-derived
The settings on record: single binding site; cited from earlier work.

The target in assay [3] is T4, Beta-Amyloid Protein (1-28) (Homo sapiens, UniProt P05067).
T4 construct: residues 1-28 of BAP or residues 597-624 of BAPP; purchased Bachem Inc., Torrance, Calif; host or cells: synthetic peptide
Description: Competitive inhibition of 125I-labeled HSPG binding to BAP (1-28) affinity column. The method, then: ^125I-labeled HSPGs in the presence of increasing concentrations of unlabeled GAGs, or large low density HSPG (from EHS sarcoma) were applied to an Affi-gel 10 column containing BAP (residues 1-28). After nonbound PGs were eluted from the column using TBS+0.1% TX-100, bound PGs were eluted with a step gradient using 15 ml of 1M MgCl2 in TBS+0.1% TX-100, followed by 15 ml of 4M MgCl2 in TBS+0.1% TX-100, and then 10 ml of 8M urea buffer containing 3M NaCl. […] Bars indicate standard error of the mean.
In order to test the specificity of HSPG binding to BAP (1-28), competitive inhibition experiments were also performed. 125-I labeled HSPGs (100,000-200,000 dpm) were mixed with (a) HSPG from EHS sarcoma (Mr approximately 700,000) (Kato et al., 1988) (gift of Dr. Koji Kimata, Aichi, Japan), (b) heparin from porcine intestinal mucosa (Mr˜11,000; Sigma, St. Louis, Mo.), (c) chondroitin-6-sulfate from shark cartilage (Mr˜59,000; Sigma, St. Louis, Mo.), or (d) […] dextran sulfate (Mr˜110,000; Pharmacia Fine Chemicals, Uppsala, Sweden). The samples were incubated on a rotator for 2 hours at room temperature and then applied to the BAP (1-28) column. Columns were run and eluted with step gradients (1 to 4 M MgCl2) as described above.
Purified iodinated HSPGs were combined with various concentrations of unlabeled competing ligands and applied to a BAP (1-28) affinity column (FIG. 10).

As a reminder, the Kd is the free concentration of one partner at which half of the binding sites on the other are occupied at equilibrium, for simple one-to-one binding.

Chain of basic fibroblast growth factor (P09038 143-288, species assumed): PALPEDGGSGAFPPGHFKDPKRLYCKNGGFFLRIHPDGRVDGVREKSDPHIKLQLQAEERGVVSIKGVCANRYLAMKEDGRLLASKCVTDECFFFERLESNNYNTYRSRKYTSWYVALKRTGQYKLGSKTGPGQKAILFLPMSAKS

On to “EHS basement-membrane HSPG: basement membrane derived heparan sulfate proteoglycan (perlecan) from mouse Engelbreth-Holm-Swarm sarcoma, Mr approximately 700,000”, for which the Kd in assay [1] is 30000 nM; with BAPP-770, 9 nM; in the assay with BAPP-751, 10 nM; with BAPP-695 it was 0.9 nM. Moreover, in assay [2], the “Alz-50 immunostaining adjacent to infusion site” value was “Lack”. Also, the “inhibition of binding of 125I-labeled HSPGs to the BAP (in words)” value in assay [3] (listed as EHS HSPG) is “more effective competitor”; in assay [3] (listed as isolated basement membrane HSPG), “strongly inhibited”. In addition, the IC50 in assay [3] (unlabeled competing ligand, BAP (1-28) affinity column, read-out: concentration at 50% inhibition of 125I-HSPG binding to BAP) is below 1000 nM.

Source of the values: US6340783B1, “Rodent models of human amyloidoses” (University of Washington, priority 1992, dated 2002).
